Source: PMC11533276, “Critical role of ROCK1 in AD pathogenesis via controlling lysosomal biogenesis and acidification” (Translational Neurodegeneration, 2024)

Target: T1, TFEB (purified protein coupled to the SPR chip) (UniProt P19484 1-476)
T1 chain: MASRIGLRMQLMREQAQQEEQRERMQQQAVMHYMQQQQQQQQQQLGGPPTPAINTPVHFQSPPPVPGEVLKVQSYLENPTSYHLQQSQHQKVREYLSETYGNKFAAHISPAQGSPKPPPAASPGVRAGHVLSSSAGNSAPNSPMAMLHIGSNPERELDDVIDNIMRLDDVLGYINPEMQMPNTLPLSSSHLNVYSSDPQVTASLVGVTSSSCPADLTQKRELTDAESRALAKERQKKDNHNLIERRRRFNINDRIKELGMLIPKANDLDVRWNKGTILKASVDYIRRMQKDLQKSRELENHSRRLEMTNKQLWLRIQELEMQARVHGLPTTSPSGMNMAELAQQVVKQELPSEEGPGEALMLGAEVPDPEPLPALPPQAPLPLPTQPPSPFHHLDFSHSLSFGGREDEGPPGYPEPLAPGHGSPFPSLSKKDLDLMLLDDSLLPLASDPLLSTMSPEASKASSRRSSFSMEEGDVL
Test: SPR; TFEB immobilised on a CM5 chip by amine coupling; ROCK1 injected at 312.5 to 5000 nM for 90 s; Biacore T200
Settings: both partners purified

B1: ROCK1 (protein injected in SPR) (enzyme)
chain: STGDSFETRFEKMDNLLRDPKSEVNSDCLLDGLDALVYDLDFPALRKNKNIDNFLSRYKDTINKIRDLRMKAEDYEVVKVIGRGAFGEVQLVRHKSTRKVYAMKLLSKFEMIKRSDSAFFWEERDIMAFANSPWVVQLFYAFQDDRYLYMVMEYMPGGDLVNLMSNYDVPEKWARFYTAEVVLALDAIHSMGFIHRDVKPDNMLLDKSGHLKLADFGTCMKMNKEGMVRCDTAVGTPDYISPEVLKSQGGDGYYGRECDWWSVGVFLYEMLVGDTPFYADSLVGTYSKIMNHKNSLTFPDDNDISKEAKNLICAFLTDREVRLGRNGVEEIKRHLFFKNDQWAWETLRDTVAPVVPDLSSDIDTSNFDDLEEDKGEEETFPIPKAFVGNQLPFVGFTYYSNRRYLSSANPNDNRTSSNADKSLQESLQKTIYKLEEQLHNEMQLKDEMEQKCRTSNIKLDKIMKELDEEGNQRRNLESTVSQIEKEKMLLQHRINEYQRKAEQENEKRRNVENEVSTLKDQLEDLKKVSQNSQLANEKLSQLQKQLEEANDLLRTESDTAVRLRKSHTEMSKSISQLESLNRELQERNRILENSKSQTDKDYYQLQAILEAERRDRGHDSEMIGDLQARITSLQEEVKHLKHNLEKVEGERKEAQDMLNHSEKEKNNLEIDLNYKLKSLQQRLEQEVNEHKVTKARLTDKHQSIEEAKSVAMCEMEKKLKEEREAREKAENRVVQIEKQCSMLDVDLKQSQQKLEHLTGNKERMEDEVKNLTLQLEQESNKRLLLQNELKTQAFEADNLKGLEKQMKQEINTLLEAKRLLEFELAQLTKQYRGNEGQMRELQDQLEAEQYFSTLYKTQVKELKEEIEEKNRENLKKIQELQNEKETLATQLDLAETKAESEQLARGLLEEQYFELTQESKKAASRNRQEITDKDHTVSRLEEANSMLTKDIEILRRENEELTEKMKKAEEEYKLEKEEEISNLKAAFEKNINTERTLKTQAVNKLAEIMNRKDFKIDRKKANTQDLRKKEKENRKLQLELNQEREKFNQMVVKHQKELNDMQAQLVEECAHRNELQMQLASKESDIEQLRAKLLDLSDSTSVASFPSADETDGNLPESRIEGWLSVPNRGNIKRYGWKKQYVVVSSKKILFYNDEQDKEQSNPSMVLDIDKLFHVRPVTQGDVYRAETEEIPKIFQILYANEGECRKDVEMEPVQQAEKTNFQNHKGHEFIPTLYHFPANCDACAKPLWHVFKPPPALECRRCHVKCHRDHLDKKEDLICPCKVSYDVTSARDMLLLACSQDEQKKWVTHLVKKIPKNPPSGFVRASPRTLSTRSTANQSFRKVVKNTSGKTS
- Kd: 1610 nM
